Laboratory results: article PMC9258321 (2022)
Where two headings read alike, the source gives them in different places. Each block holds one binder with its values, some of them ahead of it. Ends that are not written are not given here.

Columns and labels:
Kelch domain of Keap1 [1] = assay: SPR
Kelch domain of Keap1 [2] = assay: SPR; remark: listed apart in the source

Chain of Kelch domain of Keap1 (chain, as listed by the source): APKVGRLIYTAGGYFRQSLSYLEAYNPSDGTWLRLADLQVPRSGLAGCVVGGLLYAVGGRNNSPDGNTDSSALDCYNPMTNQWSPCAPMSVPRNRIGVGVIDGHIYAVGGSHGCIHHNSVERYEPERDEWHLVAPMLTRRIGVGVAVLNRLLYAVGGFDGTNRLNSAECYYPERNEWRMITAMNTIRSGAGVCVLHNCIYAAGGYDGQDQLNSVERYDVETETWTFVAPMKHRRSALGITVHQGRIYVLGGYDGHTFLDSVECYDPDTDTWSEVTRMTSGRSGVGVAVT

Kd (Kelch domain of Keap1 [1]): 415 nM
B1: drp3, minor oxidized product (peptide)
chain: GCPPCASGCSPETGEFCWREDDCPPC
modifications: disulfide (positions not given here); also: oxidized (disulfides), pairing of this isomer not given here

Kd (Kelch domain of Keap1 [2]): 277 nM
B2: drp3-a (peptide)
chain: GCPPCASGCSPETGEFCWREDDCPPC
modifications: disulfide (positions not given here); not fully specified
